According to article PMC9715718 (Nature Communications, 2022):

B1: RhlR purified in the presence of mBTL (natural protein)
chain: MRNDGGFLLWWDGLRSEMQPIHDSQGVFAVLEKEVRRLGFDYYAYGVRHTIPFTRPKTEVHGTYPKAWLERYQMQNYGAVDPAILNGLRSSEMVVWSDSLFDQSRMLWNEARDWGLCVGATLPIRAPNNLLSVLSVARDQQNISSFEREEIRLRLRCMIELLTQKLTDLEHPMLMSNPVCLSHREREILQWTADGKSSGEIAIILSISESTVNFHHKNIQKKFDAPNKTLAAAYAAALGLI
notes: RhlR, LuxR-type transcription factor of P. aeruginosa PA14/PAO1, 241 residues; also called RhlR:mBTL; non-tagged RhlR; source: E. coli BL21 CodonPlus (DE3), purified in the presence of mBTL
B2: RhlR-ATTO488 (natural protein)
chain: B1 chain
modifications: conjugated with ATTO488-maleimid (site not stated)
notes: RhlR, LuxR-type transcription factor of P. aeruginosa PA14/PAO1, 241 residues; m4 after labelling; 'non-tagged'; holds mBTL
B3: PqsE (purified, affinity tag removed) (enzyme)
chain: MLRLSAPGQLDDDLCLLGDVQVPVFLLRLGEASWALVEGGISRDAELVWADLCRWVADPSQVHYWLITHKHYDHCGLLPYLCPRLPNVQVLASERTCQAWKSESAVRVVERLNRQLLRAEQRLPEACAWDALPVRAVADGEWLELGPRHRLQVIEAHGHSDDHVVFYDVRRRRLFCGDALGEFDEAEGVWRPLVFDDMEAYLESLERLQRLPTLLQLIPGHGGLLRGRLAADGAESAYTECLRLCRRLLWRQSMGESLDELSEELHRAWGGQSVDFLPGELHLGSMRRMLEILSRQALPLD
notes: not shown: His6, N-terminal, cleaved

How the values were obtained:
[1] = molecular target: the molecule itself; assay: SEC-MALS; Superdex 200 Increase column in SEC buffer, 40-150 µg of protein applied
[2] = molecular target: T1, PqsE-E187R (Pseudomonas aeruginosa, UniProt P20581, E187R); assay: MST; PqsE diluted 1:1 from 10 µM, RhlR-ATTO488 at 20 nM; 50 mM Tris pH 8.0, 300 mM NaCl, 5% glycerol, 50 µM mBTL, 0.05% Tween; 25 °C; settings: both partners purified
T1 construct: source: E. coli BL21 CodonPlus (DE3), purified; not shown: His6, N-terminal, cleaved

| Binder | stoichiometry N [1] | Kd [2] |
| --- | --- | --- |
| B1 | 2 | – |
| B2 | – | 13.8 ± 3.9 µM |
| B3 | 2 | – |
